Key:
huLTBP1 proTGFβ1 = huLTBP1 proTGFβ1 (Homo sapiens, UniProt P01137+Q14766); test: Octet (BLI) binding, IgG captured on AHC tips, antigen at 100 nM; conditions: for Hu LTBP1-proTGFβ1 Kon / Hu LTBP1-proTGFβ1 Koff: Table 9, cycle 3; for Hu LTBP1-proTGFβ1 Kon / Hu LTBP1-proTGFβ1 Koff / Affinity for human LTBP1 complexed with proTGFβ1: IgG1-agly; for Hu LTBP1-proTGFβ1 Kon: 1:1 fit; for Hu LTBP1-proTGFβ1 Koff: 5-minute dissociation; for Response, binding to human LTBP-1 proTGFb1: Octet, antibody immobilized (loading sample); for Affinity for human LTBP1 complexed with proTGFβ1: Table 8, Octet
huLTBP1 proTGFβ1, sequence (P01137 30-390): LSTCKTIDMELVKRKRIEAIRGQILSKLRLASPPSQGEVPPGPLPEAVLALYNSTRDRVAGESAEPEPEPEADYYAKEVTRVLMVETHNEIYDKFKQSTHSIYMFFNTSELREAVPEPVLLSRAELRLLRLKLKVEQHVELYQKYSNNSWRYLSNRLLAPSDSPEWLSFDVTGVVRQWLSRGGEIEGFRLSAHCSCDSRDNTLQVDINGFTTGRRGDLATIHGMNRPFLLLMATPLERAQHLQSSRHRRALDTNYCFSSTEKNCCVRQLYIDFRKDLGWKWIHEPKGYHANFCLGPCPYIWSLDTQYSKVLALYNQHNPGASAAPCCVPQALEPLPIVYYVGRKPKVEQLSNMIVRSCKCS
huLTBP1 proTGFβ1, sequence (Q14766 347-1721 limits assumed): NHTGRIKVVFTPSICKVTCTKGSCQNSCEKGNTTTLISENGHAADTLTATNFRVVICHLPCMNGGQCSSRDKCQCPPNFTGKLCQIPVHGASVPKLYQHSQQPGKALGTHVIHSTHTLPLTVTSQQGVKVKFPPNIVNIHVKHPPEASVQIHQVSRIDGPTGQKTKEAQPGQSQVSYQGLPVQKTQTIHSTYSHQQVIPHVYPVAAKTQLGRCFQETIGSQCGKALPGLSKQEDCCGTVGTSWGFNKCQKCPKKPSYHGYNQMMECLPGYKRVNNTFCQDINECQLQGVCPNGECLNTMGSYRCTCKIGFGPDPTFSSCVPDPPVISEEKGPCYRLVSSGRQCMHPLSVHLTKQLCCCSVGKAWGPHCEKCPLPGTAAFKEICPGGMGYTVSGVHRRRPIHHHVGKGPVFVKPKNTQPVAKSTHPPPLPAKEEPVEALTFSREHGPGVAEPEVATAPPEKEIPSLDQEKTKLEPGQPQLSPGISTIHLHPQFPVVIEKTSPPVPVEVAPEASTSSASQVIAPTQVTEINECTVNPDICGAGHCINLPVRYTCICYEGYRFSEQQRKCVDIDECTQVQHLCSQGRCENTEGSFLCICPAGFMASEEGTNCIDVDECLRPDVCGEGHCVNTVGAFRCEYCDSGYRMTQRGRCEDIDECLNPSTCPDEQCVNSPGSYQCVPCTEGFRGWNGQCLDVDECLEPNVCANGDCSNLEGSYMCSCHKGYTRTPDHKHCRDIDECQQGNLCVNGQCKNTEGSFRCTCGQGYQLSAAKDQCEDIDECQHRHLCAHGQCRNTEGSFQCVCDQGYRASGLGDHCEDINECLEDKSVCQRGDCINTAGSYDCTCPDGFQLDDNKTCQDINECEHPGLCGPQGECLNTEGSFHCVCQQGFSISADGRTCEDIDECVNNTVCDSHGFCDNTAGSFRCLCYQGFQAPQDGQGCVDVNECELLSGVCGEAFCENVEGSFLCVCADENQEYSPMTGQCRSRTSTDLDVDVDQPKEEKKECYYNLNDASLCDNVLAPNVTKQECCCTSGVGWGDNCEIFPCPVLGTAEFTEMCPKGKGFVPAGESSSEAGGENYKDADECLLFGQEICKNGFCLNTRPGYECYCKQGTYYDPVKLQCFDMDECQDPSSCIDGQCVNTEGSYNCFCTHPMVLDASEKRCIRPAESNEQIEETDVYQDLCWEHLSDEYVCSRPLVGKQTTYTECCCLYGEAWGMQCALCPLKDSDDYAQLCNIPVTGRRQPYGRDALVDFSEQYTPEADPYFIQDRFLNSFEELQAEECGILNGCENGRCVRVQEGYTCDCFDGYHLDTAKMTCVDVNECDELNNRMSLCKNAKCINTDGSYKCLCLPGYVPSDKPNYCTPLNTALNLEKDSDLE
Procedure, shortened: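 Antibodies were captured on anti-human Fc biosensors at 1 μg/mL (~7 nM), to a maximum response of 1 nm. Antigen complex was run at a single 100 nM in 1× kinetics buffer, shaking at 1000 rpm. Association was 3 min and dissociation 3 min (5 min in later rounds), with KD from a local, full 1:1 fit.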

huGARP proTGFβ1 = huGARP proTGFβ1 (Homo sapiens, UniProt P01137); test: as above; conditions: for ForteBio IgG KD Hu GARP-proTGFβ1 (M) Avid: IgG1-agly, 1:1 fit; for ForteBio IgG KD Hu GARP-proTGFβ1 in solution (M) Avid: Table 10, same assay conditions as Table 9
huGARP proTGFβ1, sequence (P01137 30-390): as the sequence (P01137 30-390) above
huGARP proTGFβ1, sequence (Q14392 18-627 partner limits assumed): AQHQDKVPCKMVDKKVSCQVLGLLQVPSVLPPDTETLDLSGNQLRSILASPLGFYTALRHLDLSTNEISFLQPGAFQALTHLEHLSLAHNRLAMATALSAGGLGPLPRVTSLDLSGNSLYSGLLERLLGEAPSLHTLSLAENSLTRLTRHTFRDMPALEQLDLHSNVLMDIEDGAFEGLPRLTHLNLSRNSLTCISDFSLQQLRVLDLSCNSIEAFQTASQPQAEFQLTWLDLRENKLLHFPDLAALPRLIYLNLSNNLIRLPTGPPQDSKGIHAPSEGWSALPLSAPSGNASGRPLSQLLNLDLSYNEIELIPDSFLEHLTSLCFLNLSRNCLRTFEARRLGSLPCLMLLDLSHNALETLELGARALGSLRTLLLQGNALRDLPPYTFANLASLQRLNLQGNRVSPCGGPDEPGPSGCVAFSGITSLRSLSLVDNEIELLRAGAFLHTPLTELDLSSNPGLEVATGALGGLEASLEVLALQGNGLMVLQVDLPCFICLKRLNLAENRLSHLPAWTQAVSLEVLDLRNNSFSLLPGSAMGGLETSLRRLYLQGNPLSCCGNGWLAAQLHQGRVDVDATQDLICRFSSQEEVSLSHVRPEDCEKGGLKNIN
Procedure, shortened: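 Antibody loaded at 1 μg/mL onto anti-human Fc capture biosensors, then exposed to human GARP-proTGFβ1 at 100 nM in 1× kinetics buffer with 1000 rpm shaking. Association 3 min, dissociation 3 or 5 min; KD from 1:1 local full fit.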

huLTBP3 proTGFβ1 = huLTBP3 proTGFβ1 (Homo sapiens, UniProt P01137+Q9NS15); test: as above; conditions: IgG1-agly; for Hu LTBP3-proTGFβ1 Kon / Hu LTBP3-proTGFβ1 Koff: Table 9, cycle 3; for Hu LTBP3-proTGFβ1 Koff: 5-minute dissociation; for Affinity for human LTBP3 complexed with proTGFβ1: Table 8, Octet
huLTBP3 proTGFβ1, sequence (P01137 30-390): as the sequence (P01137 30-390) above
huLTBP3 proTGFβ1, sequence (Q9NS15 44-1303): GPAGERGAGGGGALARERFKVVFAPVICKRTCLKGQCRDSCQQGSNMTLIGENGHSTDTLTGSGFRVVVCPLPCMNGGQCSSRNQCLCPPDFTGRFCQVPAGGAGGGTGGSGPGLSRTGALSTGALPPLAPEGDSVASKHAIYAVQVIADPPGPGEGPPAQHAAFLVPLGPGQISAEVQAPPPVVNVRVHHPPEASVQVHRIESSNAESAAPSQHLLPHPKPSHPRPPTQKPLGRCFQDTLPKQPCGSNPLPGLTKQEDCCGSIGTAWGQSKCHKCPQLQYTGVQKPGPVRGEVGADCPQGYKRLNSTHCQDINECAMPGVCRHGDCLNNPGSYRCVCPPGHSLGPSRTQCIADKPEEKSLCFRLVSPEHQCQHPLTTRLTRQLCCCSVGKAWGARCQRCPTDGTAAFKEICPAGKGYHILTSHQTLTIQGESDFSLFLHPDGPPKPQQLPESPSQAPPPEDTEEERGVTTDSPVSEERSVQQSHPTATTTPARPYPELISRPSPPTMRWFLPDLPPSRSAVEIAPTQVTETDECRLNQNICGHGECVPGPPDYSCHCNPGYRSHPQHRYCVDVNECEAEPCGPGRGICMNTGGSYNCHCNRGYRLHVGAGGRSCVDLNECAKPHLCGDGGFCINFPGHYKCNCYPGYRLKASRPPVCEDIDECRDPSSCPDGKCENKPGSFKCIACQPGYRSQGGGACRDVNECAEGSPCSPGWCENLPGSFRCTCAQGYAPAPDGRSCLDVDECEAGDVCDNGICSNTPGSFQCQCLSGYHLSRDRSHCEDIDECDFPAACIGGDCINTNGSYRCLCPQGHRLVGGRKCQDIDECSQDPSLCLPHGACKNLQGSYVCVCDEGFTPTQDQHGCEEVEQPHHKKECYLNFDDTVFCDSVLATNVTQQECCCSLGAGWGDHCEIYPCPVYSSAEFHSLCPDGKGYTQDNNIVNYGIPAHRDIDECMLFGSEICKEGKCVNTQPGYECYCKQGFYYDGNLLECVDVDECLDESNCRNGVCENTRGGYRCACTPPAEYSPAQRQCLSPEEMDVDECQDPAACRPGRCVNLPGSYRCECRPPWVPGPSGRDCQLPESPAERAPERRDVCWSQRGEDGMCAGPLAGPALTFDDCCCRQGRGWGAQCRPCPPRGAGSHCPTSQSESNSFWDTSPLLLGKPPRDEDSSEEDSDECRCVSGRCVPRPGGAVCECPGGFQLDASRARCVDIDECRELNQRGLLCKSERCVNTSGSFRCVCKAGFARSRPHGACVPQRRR
Procedure, shortened: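 Antibodies loaded at 1 μg/mL onto anti-human Fc sensors were exposed to each TGFβ1 complex at 100 nM in kinetics buffer. Association ran 3 min; dissociation was 3 min in one protocol and 5 min in another. KD came from a 1:1 fitting model.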

proTGFβ1 C4S = proTGFβ1 C4S (Homo sapiens, UniProt P01137, C33S); test: Octet binding of immobilized cycle 2 antibodies to C4S antigen; conditions: antibody immobilized (loading sample)
proTGFβ1 C4S, sequence (P01137 30-390 C33S): as the sequence (P01137 30-390) above, with C4S counted along it
Text: A modified proTGFβ1 complex (proTGFβ1 C4S) in which the cysteine residue at position 4 of the pro-domain has been substituted with a serine residue (described in WO 2014/182676) was used to assess antibody binding to C4S antigen by Octet. Cycle 2 antibodies were immobilized and tested against 3 antigens. As shown in the Tables below, robust antibody binding to LTBP-1 proTGFβ1 antigen (Table 23) and proTGFβ1C4S antigen was observed (Table 24), while binding to LRRC33 proTGFβ1 antigen was not observed (Table 25).

[1] = Table 9, cycle 3, N.B. = non-binder under conditions of this assay
[2] = N.B. = non-binder under conditions of this assay
[3] = Table 8, P.F. = Poor Fit, N.B. = Non-binder under conditions of this assay

B1: SR-AB63: cycle 3 antibody, lineage SR-AB26; CDRs SEQ ID NO: 292-297; HCVR SEQ ID NO: 360, LCVR SEQ ID NO: 361 (antibody, V domains shown)
VH: QLQLQESGPGLVKPSETLSLTCTVSGGSIRSSSYYWGWIRQPPGKGLEWIGSISYSATTYYNPSLKSRVTISVDTSKNQFSLKLSSVTAADTAVYYCAGDPSYDSIAGMQVWGQGTTVTVSS
VL: DIQLTQSPSSLSASVGDRVTITCRASQSISSYLNWYQQKPGKAPKLLIYAASNLQSGVPSRFSGSGSGTDFTLTISSLQPEDFATYYCQQSFDWPLTFGGGTKVEIK
Hu LTBP1-proTGFβ1 Kon (huLTBP1 proTGFβ1): 118000 M⁻¹ s⁻¹
Hu LTBP1-proTGFβ1 Koff (huLTBP1 proTGFβ1): 7.24e-05 s⁻¹
ForteBio IgG KD Hu GARP-proTGFβ1 (M) Avid (huGARP proTGFβ1; [1]): N.B.
ForteBio IgG KD Hu GARP-proTGFβ1 in solution (M) Avid (huGARP proTGFβ1; [2]): N.B.
Hu LTBP3-proTGFβ1 Kon (huLTBP3 proTGFβ1; 1:1 fit): 159000 M⁻¹ s⁻¹
Hu LTBP3-proTGFβ1 Koff (huLTBP3 proTGFβ1): 7.84e-05 s⁻¹

B2: SR-AB42: cycle 3 antibody, lineage SR-AB23; CDRs SEQ ID NO: 166-171; HCVR SEQ ID NO: 318, LCVR SEQ ID NO: 319 (antibody, V domains shown)
VH: QVQLVESGGGVVQPGRSLRLSCAASGFTFRSYVMHWVRQAPGKGLEWVAVISHEGSLKYYADSVKGRFTISRDNSKNTLYLQMNSLRAEDTAVYYCARPRIAARRGGFGYWGQGTLVTVSS
VL: NFMLTQPHSVSESPGKTVTISCTRSSGNIDNNYVQWYQQRPGSSPTTVIYEDNQRPSGVPDRFSGSIDSSSNSASLTISGLKTEDEADYYCQSYDYDTQGVVFGGGTKLTVL
Hu LTBP1-proTGFβ1 Kon (huLTBP1 proTGFβ1): 154000 M⁻¹ s⁻¹
Hu LTBP1-proTGFβ1 Koff (huLTBP1 proTGFβ1): 6e-05 s⁻¹
ForteBio IgG KD Hu GARP-proTGFβ1 (M) Avid (huGARP proTGFβ1; [1]): N.B.
ForteBio IgG KD Hu GARP-proTGFβ1 in solution (M) Avid (huGARP proTGFβ1; [2]): N.B.
Hu LTBP3-proTGFβ1 Kon (huLTBP3 proTGFβ1; 1:1 fit): 232000 M⁻¹ s⁻¹
Hu LTBP3-proTGFβ1 Koff (huLTBP3 proTGFβ1): 6e-05 s⁻¹

B3: SR-AB22: second-round (CDR-H3 mutagenesis) antibody, lineage SR-AB14; CDRs SEQ ID NO: 108-113 (antibody, V domains shown)
VH: QVQLVESGGGVVQPGRSLRLSCAASGFTFRSYVMHWVRQAPGKGLEWVAVISHEGSLKYYADSVKGRFTISRDNSKNTLYLQMNSLRAEDTAVYYCAVPRIAARRGGFGYWGQGTLVTVSS
VL: NFMLTQPHSVSESPGKTVTISCTRSSGNIDNNYVQWYQQRPGSSPTTVIYEDNQRPSGVPDRFSGSIDSSSNSASLTISGLKTEDEADYYCQSYDSDNQGVVFGGGTKLTVL
Response, binding to human TGFb1 C4S (proTGFβ1 C4S): 0.2937 nm
Response, binding to human LTBP-1 proTGFb1 (huLTBP1 proTGFβ1): 0.4317 nm
Affinity for human LTBP1 complexed with proTGFβ1 (huLTBP1 proTGFβ1): single digit nM
ForteBio IgG KD Hu GARP-proTGFβ1 (M) Avid (huGARP proTGFβ1; [3]): P.F.
Affinity for human LTBP3 complexed with proTGFβ1 (huLTBP3 proTGFβ1): single digit nM
ForteBio IgG KD Hu LTBP3-proTGFβ1 (M) Avid (huLTBP3 proTGFβ1; Table 8, 1:1 fit, P.F. = Poor Fit, N.B. = Non-binder under conditions of this assay): P.F.

B4: SR-AB23: second-round (CDR-H3 mutagenesis) antibody, lineage SR-AB14; CDRs SEQ ID NO: 116-121 (antibody, V domains shown)
VH: QVQLVESGGGVVQPGRSLRLSCAASGFTFRSYVMHWVRQAPGKGLEWVAVISHEGSLKYYADSVKGRFTISRDNSKNTLYLQMNSLRAEDTAVYYCARPRIAARRGGFGYWGQGTLVTVSS
VL: NFMLTQPHSVSESPGKTVTISCTRSSGNIDNNYVQWYQQRPGSSPTTVIYEDNQRPSGVPDRFSGSIDSSSNSASLTISGLKTEDEADYYCQSYDSDNQGVVFGGGTKLTVL
Response, binding to human TGFb1 C4S (proTGFβ1 C4S): 0.2263 nm
Response, binding to human LTBP-1 proTGFb1 (huLTBP1 proTGFβ1): 0.3449 nm
Affinity for human LTBP1 complexed with proTGFβ1 (huLTBP1 proTGFβ1): single digit nM
ForteBio IgG KD Hu GARP-proTGFβ1 (M) Avid (huGARP proTGFβ1; [3]): N.B.
Affinity for human LTBP3 complexed with proTGFβ1 (huLTBP3 proTGFβ1): single digit nM

— patent US11214614B2, “LTBP complex-specific inhibitors of TGFβ and uses thereof” (Scholar Rock, Inc., priority 2019, dated 2022)
